Experimental data from patent US20170165339A1 (IMMATICS BIOTECHNOLOGIES, published 2017).
One block for each binder: values may come before it.

Columns and labels:
HLA-A*02 = HLA-A*02 (human); assay: UV peptide-exchange ELISA, yield grade
HLA-A*02:01 = HLA-A*02:01 (human); assay: pMHC used for negative control stimulation

B1: GLCERLVSL (SEQ ID NO: 249) (peptide)
peptide: GLCERLVSL
- peptide exchange yield (HLA-A*02): ≥ 75%

B2: KLQGKLPEL (SEQ ID NO: 254) (peptide)
peptide: KLQGKLPEL
- peptide exchange yield (HLA-A*02): 20 to 49%

B3: KTIQQLETV (SEQ ID NO: 241) (peptide)
peptide: KTIQQLETV
- peptide exchange yield (HLA-A*02): 20 to 49%

B4: ALYEGYATV (SEQ ID NO: 247) (peptide)
peptide: ALYEGYATV
- peptide exchange yield (HLA-A*02): 50 to 75%

B5: ILLPRIIEA (SEQ ID NO: 259) (peptide)
peptide: ILLPRIIEA
- peptide exchange yield (HLA-A*02): 50 to 75%

B7: LLSPHNPAL (SEQ ID NO: 234) (peptide)
peptide: LLSPHNPAL
- peptide exchange yield (HLA-A*02): 50 to 75%

B13: SLLHFTENL (SEQ ID NO: 255) (peptide)
peptide: SLLHFTENL
- peptide exchange yield (HLA-A*02): 50 to 75%

B16: TVSDVLNSV (SEQ ID NO: 246) (peptide)
peptide: TVSDVLNSV
- peptide exchange yield (HLA-A*02): 50 to 75%

B17: ALSVLRLAL (SEQ ID NO: 251) (peptide)
peptide: ALSVLRLAL
- peptide exchange yield (HLA-A*02): 50 to 75%

B18: VLLSEQGDVKL (SEQ ID NO: 263) (peptide)
peptide: VLLSEQGDVKL
- peptide exchange yield (HLA-A*02): 20 to 49%

B22: YLLEKNRVV (SEQ ID NO: 244) (peptide)
peptide: YLLEKNRVV
- peptide exchange yield (HLA-A*02): 20 to 49%

B23: RLMEICESL (SEQ ID NO: 252) (peptide)
peptide: RLMEICESL
- peptide exchange yield (HLA-A*02): 50 to 75%

B25: KIIDFLSAL (SEQ ID NO: 235) (peptide)
peptide: KIIDFLSAL
- peptide exchange yield (HLA-A*02): 50 to 75%

B29: NTCPYVHNI (SEQ ID NO: 265) (peptide)
peptide: NTCPYVHNI
- peptide exchange yield (HLA-A*02): 50 to 75%

B30: YMGEEKLIASV (SEQ ID NO: 240) (peptide)
peptide: YMGEEKLIASV
- peptide exchange yield (HLA-A*02): 50 to 75%

B32: QLQDRVYAL (SEQ ID NO: 261) (peptide)
peptide: QLQDRVYAL
- peptide exchange yield (HLA-A*02): 50 to 75%

B34: WLYGEDHQI (SEQ ID NO: 242) (peptide)
peptide: WLYGEDHQI
- peptide exchange yield (HLA-A*02): 20 to 49%

The remaining lines, values ahead:

- binding result (HLA-A*02:01): binds
B6: DDX5-001 (peptide)
peptide: YLLPAIVHI

- peptide exchange yield (HLA-A*02): 20 to 49%
B8: SLGEEQFSV (SEQ ID NO: 256) (peptide)
peptide: SLGEEQFSV

- peptide exchange yield (HLA-A*02): ≥ 75%
B9: SLLDLPLSL (SEQ ID NO: 245) (peptide)
peptide: SLLDLPLSL

- peptide exchange yield (HLA-A*02): 50 to 75%
B10: FMVDKAIYL (SEQ ID NO: 262) (peptide)
peptide: FMVDKAIYL

- peptide exchange yield (HLA-A*02): ≥ 75%
B11: LLSERFINV (SEQ ID NO: 258) (peptide)
peptide: LLSERFINV

- peptide exchange yield (HLA-A*02): 50 to 75%
B12: YAIGLVMRL (SEQ ID NO: 266) (peptide)
peptide: YAIGLVMRL

- peptide exchange yield (HLA-A*02): 50 to 75%
B14: SLAPATPEV (SEQ ID NO: 250) (peptide)
peptide: SLAPATPEV

- peptide exchange yield (HLA-A*02): 50 to 75%
B15: KLFPQETLFL (SEQ ID NO: 264) (peptide)
peptide: KLFPQETLFL

- peptide exchange yield (HLA-A*02): ≥ 75%
B19: GLYTDPCGV (SEQ ID NO: 257) (peptide)
peptide: GLYTDPCGV

- peptide exchange yield (HLA-A*02): 50 to 75%
B20: ILLEKILSL (SEQ ID NO: 260) (peptide)
peptide: ILLEKILSL

- peptide exchange yield (HLA-A*02): 50 to 75%
B21: ALAELIDNSL (SEQ ID NO: 253) (peptide)
peptide: ALAELIDNSL

- peptide exchange yield (HLA-A*02): 50 to 75%
B24: STIAILNSV (SEQ ID NO: 236) (peptide)
peptide: STIAILNSV

- peptide exchange yield (HLA-A*02): ≥ 75%
B26: YLDRFLAGV (SEQ ID NO: 248) (peptide)
peptide: YLDRFLAGV

- peptide exchange yield (HLA-A*02): 50 to 75%
B27: FMADDIFSV (SEQ ID NO: 243) (peptide)
peptide: FMADDIFSV

- peptide exchange yield (HLA-A*02): 20 to 49%
B28: KMNESTRSV (SEQ ID NO: 239) (peptide)
peptide: KMNESTRSV

- peptide exchange yield (HLA-A*02): 20 to 49%
B31: GLYERPTAA (SEQ ID NO: 238) (peptide)
peptide: GLYERPTAA

- peptide exchange yield (HLA-A*02): 50 to 75%
B33: ALAPHLDDA (SEQ ID NO: 237) (peptide)
peptide: ALAPHLDDA
